The values that follow come from article doi:10.1101/2023.04.24.538075 (bioRxiv, 2023).

This assay addresses T1, Cdc24-H (S. cerevisiae, UniProt P11433 1-854).
T1 sequence: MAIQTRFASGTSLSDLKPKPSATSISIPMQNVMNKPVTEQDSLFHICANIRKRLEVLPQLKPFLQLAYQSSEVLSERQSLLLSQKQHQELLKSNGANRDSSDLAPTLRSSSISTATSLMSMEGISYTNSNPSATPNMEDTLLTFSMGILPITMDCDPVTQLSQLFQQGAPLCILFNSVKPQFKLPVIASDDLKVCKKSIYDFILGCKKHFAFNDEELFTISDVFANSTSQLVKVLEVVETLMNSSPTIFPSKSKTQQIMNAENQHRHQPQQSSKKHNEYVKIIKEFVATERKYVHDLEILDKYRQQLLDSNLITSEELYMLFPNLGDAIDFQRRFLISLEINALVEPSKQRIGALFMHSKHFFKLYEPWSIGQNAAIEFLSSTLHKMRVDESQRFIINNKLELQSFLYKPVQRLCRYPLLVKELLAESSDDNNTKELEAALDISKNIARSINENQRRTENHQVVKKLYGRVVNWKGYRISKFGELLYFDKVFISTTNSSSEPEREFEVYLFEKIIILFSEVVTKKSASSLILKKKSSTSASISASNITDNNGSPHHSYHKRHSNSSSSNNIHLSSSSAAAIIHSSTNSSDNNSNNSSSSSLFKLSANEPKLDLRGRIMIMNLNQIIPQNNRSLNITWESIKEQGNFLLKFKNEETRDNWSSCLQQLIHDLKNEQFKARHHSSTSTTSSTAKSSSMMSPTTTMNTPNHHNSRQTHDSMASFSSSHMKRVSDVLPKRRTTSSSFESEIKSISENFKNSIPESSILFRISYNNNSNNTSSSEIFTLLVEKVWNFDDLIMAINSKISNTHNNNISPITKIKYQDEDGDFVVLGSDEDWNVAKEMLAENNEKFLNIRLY
The assay can be described thus: pull-down.

B1: H-Bem1-F (natural protein)
chain: MLKNFKLSKRDSNGSKGRITSADISTPSHDNGSVIKHIKTVPVRYLSSSSTPVKSQRDSSPKNRHNSKDITSPEKVIKAKYSYQAQTSKELSFMEGEFFYVSGDEKDWYKASNPSTGKEGVVPKTYFEVFDRTKPSSVNGSNSSSRKVTNDSLNMGSLYAIVLYDFKAEKADELTTYVGENLFICAHHNCEWFIAKPIGRLGGPGLVPVGFVSIIDIATGYATGNDVIEDIKSVNLPTVQEWKSNIARYKASNISLGSVEQQQQQSITKPQNKSAKLVDGELLVKASVESFGLEDEKYWFLVCCELSNGKTRQLKRYYQDFYDLQVQLLDAFPAEAGKLRDAGGQWSKRIMPYIPGPVPYVTNSITKKRKEDLNIYVADLVNLPDYISRSEMVHSLFVVLNNGFDREFERDENQNNIKTLQENDTATFATASQTSNFASTNQDNTLTGEDLKLNKKLSDLSLSGSKQAPAQSTSGLKTTKIKFYYKDDIFALMLKGDTTYKELRSKIAPRIDTDNFKLQTKLFDGSGEEIKTDSQVSNIIQAKLKISVHDI
Turning to B1, the binding result is “binds”.
